Measured values taken from publication PMC11880193 (Nature Communications, 2025).
Where a chain is given by its changes, count along the chain named. Numbers in names are those of the source.

B1: CODANIN-1 F581E/E652A (LOBE2 dimer interface mutant) (natural protein)
chain: MAAVLESLLREEVSVAAVVRWIARSTQGSEDNAGEAAALSSLRALRKEFVPFLLNFLREQSSRVLPQGPPTPAKTPGASAALPGRPGGPPRGSRGARSQLFPPTEAQSTAAEAPLARRGGRRRGPGPARERGGRGLEEGVSGESLPGAGGRRLRGSGSPSRPSLTLSDPPNLSNLEEFPPVGSVPPGPTGTKPSRRINPTPVSEERSLSKPKTCFTSPPISCVPSSQPSALDTSPWGLGLPPGCRSLQEEREMLRKERSKQLQQSPTPTCPTPELGSPLPSRTGSLTDEPADPARVSSRQRLELVALVYSSCIAENLVPNLFLELFFVFQLLTARRMVTAKDSDPELSPAVLDSLESPLFQSIHDCVFFAVQVLECHFQVLSNLDKGTLKLLAENERLLCFSPALQGRLRAAYEGSVAKVSLVMPPSTQAVSFQPETDNRANFSSDRAFHTFKKQRDVFYEVLREWEDHHEEPGWDFEKGLGSRIRAMMGQLSAACSHSHFVRLFQKQLLQMCQSPGGAGGTVLGEAPDVLSMLGADKLGRLWRLQERLMAPQSSGGPCPPPTFPGCQGFFRDFILSASSEQFNQHLMDSLSLKIQELNGLALPQHEPNDEDGESDVDWQGERKQFAVVLLSLRLLAKFLGFVAFLPYRGPAPPPTGELQDSILALRSQVPPVLDVRTLLQRGLQARRAVLTVPWLVEFLSFADHVVPLLEYYRDIFTLLLRLHRSLVLSQESEGKMCFLNKLLLLAVLGWLFQIPTVPEDLFFLEEGPSYAFEVDTVAPEHGLDNAPVVDQQLLYTCCPYIGELRKLLASWVSGSSGRSGGFMRKITPTTTTSLGAQPSQTSQGLQAQLAQAFFHNQPPSLRRTVEFVAERIGSNCVKHIKATLVADLVRQAESLLQEQLVTQGEEGGDPAQLLEILCSQLCPHGAQALALGREFCQRKSPGAVRALLPEETPAAVLSSAENIAVGLATEKACAWLSANITALIRREVKAAVSRTLRAQGPEPAARGERRGCSRACEHHAPLPSHLISEIKDVLSLAVGPRDPDEGVSPEHLEQLLGQLGQTLRCRQFLCPPAEQHLAKCSVELASLLVADQIPILGPPAQYRLERGQARRLLHMLLSLWKEDFQGPVPLQLLLSPRNVGLLADTRPREWDLLLFLLRELVEKGLMGRMEIEACLGSLHQAQWPGDFAEELATLSNLFLAEPHLPEPQLRACELVQPNRGTVLAQS
B2: CODANIN-1 P672L (CDA-I disease mutation) (natural protein)
chain: B1 chain with E581F, A652E, P672L
B3: CODANIN-1 F868I/E871R (C-terminal coiled-coil mutant) (natural protein)
chain: B1 chain with E581F, A652E, F868I, E871R

Biological target: the molecule itself
Test: SEC

Protein	stoichiometry N	binding result
B1	2	
B2	2	
B3		binds
